Substitutions are numbered along the chain they refer to.
T1: Human B7-H4-Fc (Human B7H4 ECD, Fc_6His) (human)
T1 construct: also called FcHis6 tagged human B7-H4
T1 sequence (Q7Z7D3 whole entry, looked up): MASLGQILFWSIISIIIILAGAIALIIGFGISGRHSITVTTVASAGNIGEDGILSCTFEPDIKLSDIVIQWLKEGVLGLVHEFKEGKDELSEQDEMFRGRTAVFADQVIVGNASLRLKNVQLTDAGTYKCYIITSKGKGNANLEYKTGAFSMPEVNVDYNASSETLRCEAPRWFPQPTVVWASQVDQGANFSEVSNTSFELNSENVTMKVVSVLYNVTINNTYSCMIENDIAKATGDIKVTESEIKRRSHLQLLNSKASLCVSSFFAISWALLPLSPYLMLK

T2: Murine B7-H4-Fc (Mouse B7H4 ECD, Fc_6His) (mouse, UniProt Q7TSP5 25-257)
T2 construct: extracellular domain; also called mouse B7-H4-Fc; FcHis6 tagged murine B7-H4
T2 sequence (Q7TSP5 whole entry, looked up): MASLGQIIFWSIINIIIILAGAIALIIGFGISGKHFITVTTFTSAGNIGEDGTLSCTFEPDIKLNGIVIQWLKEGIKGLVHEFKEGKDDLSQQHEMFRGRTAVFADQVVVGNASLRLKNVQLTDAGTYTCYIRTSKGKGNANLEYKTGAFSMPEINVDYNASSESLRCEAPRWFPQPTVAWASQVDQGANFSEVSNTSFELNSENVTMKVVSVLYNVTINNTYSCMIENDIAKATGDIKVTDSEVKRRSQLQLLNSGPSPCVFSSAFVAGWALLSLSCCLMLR

T3: Human B7-H4 ECD-Flag-His10 (monomeric) (human, UniProt Q7Z7D3 25-259)
T3 construct: Minimally biotinylated for KinExA; also called hB7H4-ECD-Flag-His10; B7-H4-FLAG
T3 sequence: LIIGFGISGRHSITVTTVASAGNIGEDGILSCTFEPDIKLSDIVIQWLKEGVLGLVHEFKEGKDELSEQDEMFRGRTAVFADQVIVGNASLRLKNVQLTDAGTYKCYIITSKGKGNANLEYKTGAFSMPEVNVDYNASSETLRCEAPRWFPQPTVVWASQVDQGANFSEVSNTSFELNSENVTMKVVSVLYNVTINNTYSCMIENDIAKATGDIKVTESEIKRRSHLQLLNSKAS

T4: Murine B7-H4 ECD-Flag-His10 (monomeric) (mouse, UniProt Q7TSP5 25-257)
T4 construct: extracellular domain; also called FlagHis10 murine B7-H4
T4 sequence (looked up): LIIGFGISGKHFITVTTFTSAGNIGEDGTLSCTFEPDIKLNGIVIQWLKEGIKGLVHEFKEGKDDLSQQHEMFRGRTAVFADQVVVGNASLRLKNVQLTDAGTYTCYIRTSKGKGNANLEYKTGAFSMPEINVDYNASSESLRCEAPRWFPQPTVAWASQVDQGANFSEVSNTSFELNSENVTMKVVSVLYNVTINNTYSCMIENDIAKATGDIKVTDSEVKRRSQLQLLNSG

T5: huHHLA2 (human, UniProt Q9UM44 23-344)
T5 construct: Sourced antigen; construct not described; also called Human HHLA2
T5 sequence (looked up): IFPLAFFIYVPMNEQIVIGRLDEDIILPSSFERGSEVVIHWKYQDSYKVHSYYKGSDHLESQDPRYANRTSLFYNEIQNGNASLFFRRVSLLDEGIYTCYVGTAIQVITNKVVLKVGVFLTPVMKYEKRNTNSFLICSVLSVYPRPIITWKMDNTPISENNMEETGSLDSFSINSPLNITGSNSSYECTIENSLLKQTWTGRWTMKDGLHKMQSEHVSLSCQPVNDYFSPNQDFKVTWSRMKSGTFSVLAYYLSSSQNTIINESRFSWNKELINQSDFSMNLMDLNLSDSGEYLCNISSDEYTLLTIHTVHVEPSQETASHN

T6: huBTN1A1 (human, UniProt Q13410 27-242, limits assumed)
T6 construct: Sourced antigen; construct not described; also called Human BTN1A1
T6 sequence (looked up): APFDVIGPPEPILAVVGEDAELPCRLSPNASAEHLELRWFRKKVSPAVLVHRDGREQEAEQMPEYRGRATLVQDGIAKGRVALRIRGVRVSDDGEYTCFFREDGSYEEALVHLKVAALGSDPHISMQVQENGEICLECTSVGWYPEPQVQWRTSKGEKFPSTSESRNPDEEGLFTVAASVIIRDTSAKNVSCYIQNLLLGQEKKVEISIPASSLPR

T7: huB7-H3 (human, UniProt Q5ZPR3 29-461, limits assumed)
T7 construct: Sourced antigen; construct not described; also called Human B7-H3
T7 sequence (looked up): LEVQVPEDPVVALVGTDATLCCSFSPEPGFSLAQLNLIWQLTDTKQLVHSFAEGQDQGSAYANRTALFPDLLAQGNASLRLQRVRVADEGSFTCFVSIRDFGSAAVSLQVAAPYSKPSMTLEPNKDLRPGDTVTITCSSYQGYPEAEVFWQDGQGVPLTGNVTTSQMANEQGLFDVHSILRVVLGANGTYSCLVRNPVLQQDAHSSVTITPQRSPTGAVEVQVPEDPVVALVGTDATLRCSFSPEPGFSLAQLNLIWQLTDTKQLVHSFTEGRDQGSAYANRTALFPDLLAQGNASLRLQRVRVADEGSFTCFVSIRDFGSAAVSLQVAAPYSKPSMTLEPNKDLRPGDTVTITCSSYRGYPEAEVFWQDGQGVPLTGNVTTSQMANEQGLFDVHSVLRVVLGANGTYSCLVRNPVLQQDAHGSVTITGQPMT

T8: huB7-H2 (human, UniProt O75144 19-258)
T8 construct: Sourced antigen; construct not described; also called Human B7-H2
T8 sequence (looked up): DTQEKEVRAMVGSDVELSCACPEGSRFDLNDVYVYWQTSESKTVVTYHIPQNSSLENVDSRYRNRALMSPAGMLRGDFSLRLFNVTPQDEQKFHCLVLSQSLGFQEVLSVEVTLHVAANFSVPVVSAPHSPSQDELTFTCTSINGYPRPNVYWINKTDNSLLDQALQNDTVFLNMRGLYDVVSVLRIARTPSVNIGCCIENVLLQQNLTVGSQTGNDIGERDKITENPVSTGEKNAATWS

B1: ZY0EPQ-E02 human IgG1 (antibody, V domains shown)
VH: QVQLQQWGAGLLKPSETLSLTCAVYGGSFSGYYWNWIRQPPGKGLEWIGEINHSGSTNYNPSLKSRVTILVDTSKNQFSLKLSSVTAADTAVYYCARNLYNWNLDSWGQGTLVTVSS
VL: DIQMTQSPSSLSASVGDRVTITCRASQGIRNDLGWYQQKPGRAPKRLIYVASSLQSGVPSRFSGSGSGTEFTLTISSLQPEDFATYYCLQHNSYPRTFGQGTKVEIK
B2: ZY0EQD-E02 human IgG1 (antibody, V domains shown)
VH: B1 VH with N58S, L70S, N98V, L104V
VL: B1 VL with G28D, L33V, R42K, V50A, S53R
B3: ZY0EP0-C07 human IgG1 (antibody, V domains shown)
VH: QVQLVESGGVLVKPGGSLRLSCAASGFTLSDYYMSWIRQAPGMGLEWVSYISSSGSTIYYTDSVKGRFTISRDSAKNSLYLQMNSLRAEDTAVYYCARDGVGFDYWGQGTLVTVSS
VL: EIVLTQSPGTLSLFPGERATLSCRASQSVSSSYLAWYQQKPGQSPRLLIYAASSRATGIPDRFSGSGSGTDFTLTISRLEPEDFAVYYCQQYGSSPLYTFGQGTKLEIK
notes: also called ZY0EPO-C07
B4: ZY0EO5-E07 human IgG1 (antibody, V domains shown)
VH: QVQLQESGPGLVKPSQTLSLTCTVSGGSISSGGYYWSWIRQHPGKGLEWIGNIYYSGSTYYNPSLKSRVTISVDTSKNQFSLKLSSVTAADTAVYYCAREKALASVIPSGYENYYVVDVWGQGTTVTVSS
VL: DIQLTQSPSFLSASVGGRVTITCWASQGIAGYLAWYQQKPGKAPKLLIYAASTLQSGVPSRFSGSGSGTEFTLTISSLQPEDFATYYCQHLNSYPLTFGGGTKVEIK
notes: also called ZY0E05-E07; E05-E07
B5: ZY0EOB-F05 human IgG1 (antibody, V domains shown)
VH: B4 VH with G26D, S85N, R99T, S105T, I107T, V116T
VL: B4 VL with G17D, A30S, G31S
B6: human ZY0EPQ-E02 (antibody, V domains shown)
VH: B1 VH
VL: B1 VL

Target: T1, Human B7-H4-Fc (Human B7H4 ECD, Fc_6His)
Assay: HTRF binding, human IgG1

| EC50 [nM] | Max | Binder |
| --- | --- | --- |
| 0.38 | 1130 | B1 |
| 0.35 | 1240 | B2 |
| 0.3 | 1220 | B3 |
| 0.19 | 1710 | B4 |
| 0.15 | 1820 | B5 |

Target: T9, Cyno B7-H4-Fc (Cyno B7H4 ECD, FcTM_6His) (cynomolgus monkey)
T9 construct: extracellular domain; also called cynomolgus B7-H4-Fc
Assay: HTRF binding, human IgG1

| EC50 [nM] | Max | Binder |
| --- | --- | --- |
| 0.33 | 987 | B1 |
| 0.28 | 1130 | B2 |
| 0.33 | 946 | B3 |
| 0.18 | 1360 | B4 |
| 0.14 | 1480 | B5 |

Target: T2, Murine B7-H4-Fc (Mouse B7H4 ECD, …)
Assay: HTRF binding, human IgG1

| EC50 [nM] | Max | Binder |
| --- | --- | --- |
| 1.49 | 279 | B1 |
| 1.4 | 167 | B2 |
| 0.18 | 1320 | B3 |
| 0.21 | 1300 | B4 |
| 0.19 | 1320 | B5 |

Target: T3, Human B7-H4 ECD-Flag-His10 (monomeric)
Assay: Octet BLI, hIgG1 on Protein G (n = 1)

| Kd [nM] | koff [s⁻¹] | kon [M⁻¹ s⁻¹] | Binder |
| --- | --- | --- | --- |
| 24 | 0.00208 | 85900 | B1 |
| 14.9 | 0.00321 | 216000 | B2 |
| 7 | 0.000363 | 48800 | B3 |
| 14.6 | 0.000318 | 21700 | B4 |
| 11.7 | 0.000362 | 31000 | B5 |

Target: T4, Murine B7-H4 ECD-Flag-His10 (monomeric)
Assay: Octet BLI, hIgG1 on Protein G (n = 1)

| Kd [nM] | koff [s⁻¹] | kon [M⁻¹ s⁻¹] | Binder |
| --- | --- | --- | --- |
| 498 | 0.0498 | 100000 | B1 |
| 625 | 0.213 | 341000 | B2 |
| 9 | 0.000551 | 60200 | B3 |
| 23.2 | 0.000415 | 17900 | B4 |
| 19.8 | 0.000493 | 24900 | B5 |

Target: T10, Human B7H4 ECD (SV), splice variant, 10His_FLAG (human)
T10 construct: also called B7-H4-SV
Assay: Octet BLI, hIgG1 on Protein G (n = 1)

| Kd [nM] | koff [s⁻¹] | kon [M⁻¹ s⁻¹] | Binder |
| --- | --- | --- | --- |
| 1030 | 0.00252 | 2460 | B1 |
| 834 | 0.00349 | 4190 | B2 |
| 182 | 0.000528 | 2910 | B4 |
| 127 | 0.000598 | 4710 | B5 |

Target: T5, huHHLA2
Assay: ELISA, absorbance 450 nm, antigen human HHLA2 GST

| Binder | binding result |
| --- | --- |
| B6 | no binding (tested: about 10 µg/ml (antigen)) |

Target: T6, huBTN1A1
Assay: ELISA, absorbance 450 nm, antigen human BTN1A1 GST

| binding result | Binder |
| --- | --- |
| no binding (tested: 10 µg/ml (antigen)) | B6 |

Target: T11, huBTN3A2 (human, UniProt P78410 30-248, limits assumed)
T11 construct: Sourced antigen; construct not described; also called Human BTN3A2
Assay: ELISA, absorbance 450 nm, antigen human BTN3A2 GST

T11 sequence (P78410 30-248 limits assumed): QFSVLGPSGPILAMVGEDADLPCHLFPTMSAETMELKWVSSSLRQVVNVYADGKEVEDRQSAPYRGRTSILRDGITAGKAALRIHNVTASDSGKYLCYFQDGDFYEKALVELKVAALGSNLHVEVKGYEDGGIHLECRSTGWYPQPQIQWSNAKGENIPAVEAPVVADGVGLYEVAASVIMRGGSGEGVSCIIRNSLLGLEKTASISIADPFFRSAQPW

| Binder | binding result |
| --- | --- |
| B6 | no binding (tested: about 10 µg/ml (antigen)) |

Target: T7, huB7-H3
Assay: ELISA, absorbance 450 nm, antigen human B7-H3 (ECD) Fc

| binding result | Binder |
| --- | --- |
| no binding | B6 |

Target: T12, huB7-H1 (human, UniProt Q9NZQ7 19-238)
T12 construct: Sourced antigen; construct not described; also called Human B7-H1
Assay: ELISA, absorbance 450 nm, antigen human B7-H1(ECD) F10H

T12 sequence (Q9NZQ7 19-238 limits assumed): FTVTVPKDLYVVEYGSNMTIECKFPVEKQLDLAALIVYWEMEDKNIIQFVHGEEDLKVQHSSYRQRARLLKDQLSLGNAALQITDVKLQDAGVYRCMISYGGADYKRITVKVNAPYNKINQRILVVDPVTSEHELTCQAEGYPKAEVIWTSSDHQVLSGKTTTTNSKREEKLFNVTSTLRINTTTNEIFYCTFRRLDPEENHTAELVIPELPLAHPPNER

| binding result | Binder |
| --- | --- |
| no binding (tested: 10 µg/ml (antigen)) | B6 |

Target: T8, huB7-H2
Assay: ELISA, absorbance 450 nm, antigen human B7-H2 (ECD) F10H

| binding result | Binder |
| --- | --- |
| no binding (tested: 10 µg/ml (antigen)) | B6 |
